For assay [1], the target named is T1, FGFR3 (Homo sapiens, UniProt P22607). The assay can be described thus: Affinity and Koff to FGFR3 measured by BIAcore. Type of assay: binding. (In general: Surface plasmon resonance follows binding to a sensor surface in real time, without labels.)
For assay [2], the target named is T1, FGFR3. The assay can be described thus: FGFR3 domain specificity of binding.

The Kd is a measure of binding affinity in units of concentration. High values mean a looser complex, low ones a tighter complex.

T1 sequence (P22607 23-806): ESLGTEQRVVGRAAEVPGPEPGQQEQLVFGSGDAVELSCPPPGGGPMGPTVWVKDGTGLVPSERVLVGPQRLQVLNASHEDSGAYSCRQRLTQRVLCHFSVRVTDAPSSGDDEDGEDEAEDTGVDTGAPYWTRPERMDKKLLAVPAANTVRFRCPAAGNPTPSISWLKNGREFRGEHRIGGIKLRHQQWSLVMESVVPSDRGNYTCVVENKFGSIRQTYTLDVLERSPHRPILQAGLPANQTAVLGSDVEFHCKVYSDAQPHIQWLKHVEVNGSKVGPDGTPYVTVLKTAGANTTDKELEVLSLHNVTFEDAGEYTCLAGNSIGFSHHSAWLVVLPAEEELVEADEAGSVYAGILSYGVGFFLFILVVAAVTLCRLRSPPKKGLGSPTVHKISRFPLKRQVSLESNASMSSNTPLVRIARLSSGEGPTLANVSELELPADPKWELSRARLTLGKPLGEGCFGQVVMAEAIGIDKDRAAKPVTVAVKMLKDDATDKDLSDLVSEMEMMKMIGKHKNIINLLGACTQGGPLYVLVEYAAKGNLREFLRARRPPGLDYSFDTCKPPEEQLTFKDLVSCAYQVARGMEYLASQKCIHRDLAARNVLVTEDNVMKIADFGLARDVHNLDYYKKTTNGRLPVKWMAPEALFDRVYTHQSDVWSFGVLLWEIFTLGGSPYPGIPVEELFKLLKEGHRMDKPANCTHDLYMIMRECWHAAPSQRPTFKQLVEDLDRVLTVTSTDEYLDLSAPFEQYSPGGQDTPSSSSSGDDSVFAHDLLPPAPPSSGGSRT

B1: PRO-029: HuCAL anti-FGFR3 clone; VH-CDR3 SEQ ID NO:7, VL-CDR3 SEQ ID NO:16 (antibody, V domains shown)
VH: QVQLVQSGAEVKKPGASVKVSCKASGYTFTSYYMHWVRQAPGQGLEWMGWINPNSGGTNYAQKFQGRVTMTRDTSISTAYMELSSLRSEDTAVYYCARTWQYSYFYYLDGGYYFDIWGQGTLVTVSS
VL: DIVLTQSPATLSLSPGERATLSCRASQSVSSSYLAWYQQKPGQAPRLLIYGASSRATGVPARFSGSGSGTDFTLTISSLEPEDFATYYCQQTNNAPVTFGQGTKVEIKRT
With B1, the equilibrium dissociation constant (Kd) with FGFR3 [1] stood at 6 nM. Further, the “FGFR3 Domain Specificity” value with FGFR3 [2] amounted to 3c.

B2: PRO-012: HuCAL anti-FGFR3 clone; VH-CDR3 SEQ ID NO:3, VL-CDR3 SEQ ID NO:12 (antibody, V domains shown)
VH: QVQLKESGPALVKPTQTLTLTCTFSGFSLSTSGVGVGWIRQPPGKALEWLALIDWDDDKYYSTSLKTRLTISKDTSKNQVVLTMTNMDPVDTATYYCARYHSWYEMGYYGSTVGYMFDYWGQGTLVTVSS
VL: DIELTQPPSVSVAPGQTARISCSGDALGDKYASWYQQKPGQAPVLVIYDDSDRPSGIPERFSGSNSGNTATLTISGTQAEDEADYYCQSYDFDFAVFGGGTKLTVLGQ
B2 returned a Kd with FGFR3 [1] of 14 nM. Moreover, the “FGFR3 Domain Specificity” value with FGFR3 [2] amounted to 2.

B3: PRO-054: HuCAL anti-FGFR3 clone; VH-CDR3 SEQ ID NO:8, VL-CDR3 SEQ ID NO:17 (antibody, V domains shown)
VH: QVQLVQSGAEVKKPGASVKVSCKASGYTFTSYYMHWVRQAPGQGLEWMGWINPNSGGTNYAQKFQGRVTMTRDTSISTAYMELSSLRSEDTAVYYCARNMAYTNYQYVNMPHFDYWGQGTLVTVSS
VL: DIELTQPPSVSVAPGQTARISCSGDALGDKYASWYQQKPGQAPVLVIYDDSDRPSGIPERFSGSNSGNTATLTISGTQAEDEADYYCQSYDYFKLVFGGGTKLTVLGQ
As for B3, the Kd with FGFR3 [1] was 3.7 nM. For the same molecule, the “FGFR3 Domain Specificity” value with FGFR3 [2] was found to be 3c.

B4: PRO-002: HuCAL anti-FGFR3 clone; VH-CDR3 SEQ ID NO:2, VL-CDR3 SEQ ID NO:11 (antibody, V domains shown)
VH: QVQLVQSGAEVKKPGASVKVSCKASGYTFTSYYMHWVRQAPGQGLEWMGWINPNSGGTNYAQKFQGRVTMTRDTSISTAYMELSSLRSEDTAVYYCARDFLGYEFDYWGQGTLVTVSS
VL: DIELTQPPSVSVAPGQTARISCSGDALGDKYASWYQQKPGQAPVLVIYDDSDRPSGIPERFSGSNSGNTATLTISGTQAEDEADYYCQSYDYSADYVFGGGTKLTVLGQ
As for B4, the equilibrium dissociation constant (Kd) with FGFR3 [1] worked out at 37 nM. For the same molecule, in the assay with FGFR3 [2], the “FGFR3 Domain Specificity” value turned out to be 2.

B5: PRO-026: HuCAL anti-FGFR3 clone; VH-CDR3 SEQ ID NO:6, VL-CDR3 SEQ ID NO:15 (antibody, V domains shown)
VH: QVQLVQSGAEVKKPGASVKVSCKASGYTFTSYYMHWVRQAPGQGLEWMGWINPNSGGTNYAQKFQGRVTMTRDTSISTAYMELSSLRSEDTAVYYCARGYWYAYFTYINYGYFDNWGQGTLVTVSS
VL: DIALTQPASVSGSPGQSITISCTGTSSDVGGYNYVSWYQQHPGKAPKLMIYDVSNRPSGVSNRFSGSKSGNTASLTISGLQAEDEADYYCQSYDNNSDVVFGGGTKLTVLGQ
Turning to B5, binding with FGFR3 [1] was put at a Kd of 4 nM. Besides, the “FGFR3 Domain Specificity” value with FGFR3 [2] was found to be 3c.

B6: PRO-055: HuCAL anti-FGFR3 clone; VH-CDR3 SEQ ID NO:9, VL-CDR3 SEQ ID NO:18 (antibody, V domains shown)
VH: QVQLVQSGAEVKKPGASVKVSCKASGYTFTSYYMHWVRQAPGQGLEWMGWINPNSGGTNYAQKFQGRVTMTRDTSISTAYMELSSLRSEDTAVYYCARSMNSTMYWYLRRVLFDHWGQGTLVTVSS
VL: DIALTQPASVSGSPGQSITISCTGTSSDVGGYNYVSWYQQHPGKAPKLMIYDVSNRPSGVSNRFSGSKSGNTASLTISGLQAEDEADYYCQSYDMYNYIVFGGGTKLTVLGQ
On to B6, for which, in the assay with FGFR3 [1], the Kd came to 2.9 nM. Besides, the “FGFR3 Domain Specificity” value with FGFR3 [2] was 3c.

Source of the values: US20090175866A1, “TREATMENT OF B-CELL MALIGNANCIES” (priority 2004, published 2009).
